± gives the standard deviation of the averaged measurements.
The sequences below were run on Saccharomyces cerevisiae (assay: protein stability index of tFT-peptide fusion (C-terminal peptide) (PSI (0-1 scale)); higher = more stable (slower turnover)). Conditions: genetic background: wild type; temperature: 30 C.
Experimental: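 Multiplexed protein stability (MPS) profiling in S. cerevisiae. Random 12-aa peptides (tFT-X12 library) are fused to the C-terminus of a sfGFP-mCherry tandem fluorescent timer, after mCherry and a GGGS linker. Cells are FACS-sorted into 8 mCherry/sfGFP bins and deep-sequenced. The protein stability index (PSI) is the read-weighted bin average, scaled from 0 (unstable) to 1 (stable). Only peptides with >10 reads are reported; cells were grown at 30 °C in SC-His with glucose.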
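Also: PSI is a weighted mean of sequencing reads over stability bins, variants kept only with over 10 reads, mCherry proximal and sfGFP distal, peptide attached via GGGS linker.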

For CEPPRPGLLPLF, which protein stability index is on record?
The protein stability index was 0.724 ± 0.016.

For CESRSIVSFVLL, which protein stability index is on record?
The protein stability index was 0.73 ± 0.11.

For CFFLVLPPFPLF, which protein stability index is on record?
Its protein stability index is 0.518 ± 0.028.

Which protein stability index does the source give for CFGFVRSLGWWG here?
Its protein stability index is 0.6486 ± 0.0027.

CFMGCAKRVTLI was tested. Which protein stability index did it give?
Its protein stability index is 0.561 ± 0.039.

CFRTVPPPALTR was tested. Which protein stability index did it give?
Its protein stability index is 0.7199 ± 0.002.

With CGAGGARGSVAR as the sequence, how does the protein stability index read?
The protein stability index was 0.693 ± 0.026.

CGALKGKKPYGV was tested. Which protein stability index did it give?
The protein stability index was 0.715 ± 0.057.

CGALSVLGWEPF was tested. Which protein stability index did it give?
The protein stability index was 0.71615 ± 0.0001.

How did the protein stability index turn out when CGCFLSELATFC was run?
Its protein stability index is 0.652 ± 0.059.

CGCVSWYYGALD was tested. Which protein stability index did it give?
The protein stability index was 0.628 ± 0.0073.

How did the protein stability index turn out when CGEALGVSWMTL was run?
Its protein stability index is 0.684 ± 0.0038.

CGEWSWAGVGVR was tested. Which protein stability index did it give?
The protein stability index was 0.702 ± 0.032.

How did the protein stability index turn out when CGFCVCWSGVAL was run?
Its protein stability index is 0.72 ± 0.045.

With CGFFSGLLYFSL as the sequence, how does the protein stability index read?
Its protein stability index is 0.586 ± 0.028.

CGGAQRREGGLG was tested. Which protein stability index did it give?
The protein stability index was 0.649 ± 0.03.

CGLASHLCSGRG was tested. Which protein stability index did it give?
The protein stability index was 0.66 ± 0.081.

CGLRGAGVLCWG was tested. Which protein stability index did it give?
Its protein stability index is 0.483 ± 0.051.

For CGLRRFTGLAWS, which protein stability index is on record?
The protein stability index was 0.6372 ± 0.00093.

How did the protein stability index turn out when CGLRVAGVLCWG was run?
The protein stability index was 0.465 ± 0.05.

With CGPLPLVRSLLP as the sequence, how does the protein stability index read?
The protein stability index was 0.7031 ± 0.0023.

CGRCVRGGRPWG was tested. Which protein stability index did it give?
The protein stability index was 0.577 ± 0.012.

For CGRGVWAVVGVP, which protein stability index is on record?
Its protein stability index is 0.715 ± 0.028.

For CGRSGALGPWGG, which protein stability index is on record?
Its protein stability index is 0.673 ± 0.0053.

Which protein stability index does the source give for CGSAIGEARDLG here?
Its protein stability index is 0.621 ± 0.021.

For CGSTLLPESYIQ, which protein stability index is on record?
The protein stability index was 0.645 ± 0.052.

With CGTVVISGIVWR as the sequence, how does the protein stability index read?
Its protein stability index is 0.647 ± 0.04.

Which protein stability index does the source give for CGVHESAIQPNL here?
The protein stability index was 0.605 ± 0.0081.

For CGWGVMDAVGSR, which protein stability index is on record?
The protein stability index was 0.685 ± 0.019.

With CHILGSINKIKE as the sequence, how does the protein stability index read?
Its protein stability index is 0.7 ± 0.039.

How did the protein stability index turn out when CHRLGRTTGRIR was run?
Its protein stability index is 0.692 ± 0.026.

CIGVRFVNAHEG was tested. Which protein stability index did it give?
The protein stability index was 0.771 ± 0.1.

CILPVLRGMSPA was tested. Which protein stability index did it give?
Its protein stability index is 0.616 ± 0.011.

For CIQRYSTAHPYH, which protein stability index is on record?
Its protein stability index is 0.679 ± 0.06.

For CIVSARCWRSPY, which protein stability index is on record?
Its protein stability index is 0.609 ± 0.0072.

For CKQIESRLLEGQ, which protein stability index is on record?
The protein stability index was 0.64 ± 0.024.

Which protein stability index does the source give for CLAPPTFAPSSL here?
Its protein stability index is 0.752 ± 0.081.

With CLCLGGIWIVGG as the sequence, how does the protein stability index read?
Its protein stability index is 0.63 ± 0.027.

Which protein stability index does the source give for CLDRRCTSRGCI here?
The protein stability index was 0.717 ± 0.03.

With CLFSFGPLAVNI as the sequence, how does the protein stability index read?
Its protein stability index is 0.6 ± 0.0079.

Which protein stability index does the source give for CLGLVSLSGGAR here?
The protein stability index was 0.712 ± 0.073.

For CLGRDVENRDAW, which protein stability index is on record?
Its protein stability index is 0.785 ± 0.078.

How did the protein stability index turn out when CLGSGGRVSRGA was run?
Its protein stability index is 0.6715 ± 0.0022.

For CLHLDQAACVGS, which protein stability index is on record?
Its protein stability index is 0.695 ± 0.1.

For CLIGHFFSVIFY, which protein stability index is on record?
Its protein stability index is 0.5239 ± 0.0051.

With CLLLPPLATFPR as the sequence, how does the protein stability index read?
The protein stability index was 0.695 ± 0.017.

Which protein stability index does the source give for CLLSRGLTVSYS here?
The protein stability index was 0.626 ± 0.012.

CLPGVVRGLSTM was tested. Which protein stability index did it give?
The protein stability index was 0.703 ± 0.036.

With CLPLPAPLLAHL as the sequence, how does the protein stability index read?
The protein stability index was 0.666 ± 0.16.

CLPRFLGLGGRV was tested. Which protein stability index did it give?
The protein stability index was 0.68 ± 0.072.

How did the protein stability index turn out when CLRPGAPESSIP was run?
Its protein stability index is 0.673 ± 0.1.

For CLRRGGAGDGAS, which protein stability index is on record?
Its protein stability index is 0.678 ± 0.011.

For CLSPAPLPPFFY, which protein stability index is on record?
The protein stability index was 0.6724 ± 0.0018.

For CLSYSVCPFWEA, which protein stability index is on record?
Its protein stability index is 0.807 ± 0.0087.

With CLTTVCHRRVRC as the sequence, how does the protein stability index read?
The protein stability index was 0.655 ± 0.075.

How did the protein stability index turn out when CLVGSLTDIAWL was run?
The protein stability index was 0.756 ± 0.028.

CLVSGGRVSRGA was tested. Which protein stability index did it give?
The protein stability index was 0.6578 ± 0.0019.

How did the protein stability index turn out when CLVWGGCYWDVG was run?
The protein stability index was 0.6019 ± 0.0015.

For CLWSDQLFFYFG, which protein stability index is on record?
The protein stability index was 0.734 ± 0.025.

With CLYLLFGLLHVG as the sequence, how does the protein stability index read?
Its protein stability index is 0.545 ± 0.02.

For CMFATFLFVPPL, which protein stability index is on record?
Its protein stability index is 0.591 ± 0.014.

How did the protein stability index turn out when CPDFSSSLTFFL was run?
Its protein stability index is 0.706 ± 0.014.

How did the protein stability index turn out when CPFPSPTPPPPC was run?
Its protein stability index is 0.726 ± 0.095.

With CPGTSLVLPPLL as the sequence, how does the protein stability index read?
The protein stability index was 0.688 ± 0.019.

With CPIASSRHSVGL as the sequence, how does the protein stability index read?
Its protein stability index is 0.823 ± 0.12.

How did the protein stability index turn out when CPIKSLLPGSFA was run?
Its protein stability index is 0.693 ± 0.03.

CPLPGSRHLAPV was tested. Which protein stability index did it give?
The protein stability index was 0.742 ± 0.068.

For CPLPPSTPPLRL, which protein stability index is on record?
The protein stability index was 0.709 ± 0.0098.

Which protein stability index does the source give for CPPARLLPHPPA here?
Its protein stability index is 0.733 ± 0.013.

CPPCPSAPPPLP was tested. Which protein stability index did it give?
The protein stability index was 0.752 ± 0.07.

How did the protein stability index turn out when CPPFLTPRLAPA was run?
Its protein stability index is 0.778 ± 0.2.

For CPPPPPPPRPPP, which protein stability index is on record?
Its protein stability index is 0.639 ± 0.0095.

How did the protein stability index turn out when CPSPPPIPLTLS was run?
The protein stability index was 0.6221 ± 0.001.

With CQDDGTAKRHKG as the sequence, how does the protein stability index read?
The protein stability index was 0.676 ± 0.061.

CQFPSLPLPSFM was tested. Which protein stability index did it give?
The protein stability index was 0.66 ± 0.032.

With CRAPSPRPWRPH as the sequence, how does the protein stability index read?
The protein stability index was 0.708 ± 0.062.

How did the protein stability index turn out when CRFLDVSSWILI was run?
The protein stability index was 0.707 ± 0.065.

Which protein stability index does the source give for CRGILVGVWRCG here?
The protein stability index was 0.5856 ± 0.0014.

Which protein stability index does the source give for CRGSGGRVVLVG here?
The protein stability index was 0.674 ± 0.041.

For CRKPRPLSFPLV, which protein stability index is on record?
Its protein stability index is 0.701 ± 0.043.

For CRRSCPRLTVTR, which protein stability index is on record?
The protein stability index was 0.746 ± 0.015.

CRSLSAPLPGSF was tested. Which protein stability index did it give?
Its protein stability index is 0.657 ± 0.021.

Which protein stability index does the source give for CRTFSALVDRFT here?
The protein stability index was 0.687 ± 0.046.

For CRTPQICASCLC, which protein stability index is on record?
Its protein stability index is 0.59 ± 0.015.

With CRTSRSSSLPPY as the sequence, how does the protein stability index read?
The protein stability index was 0.7218 ± 0.0054.

Which protein stability index does the source give for CRVNSVRPVYPS here?
Its protein stability index is 0.7079 ± 0.0049.

CSEGSSFVDKRG was tested. Which protein stability index did it give?
Its protein stability index is 0.594 ± 0.039.

Which protein stability index does the source give for CSERGQVCAVVY here?
Its protein stability index is 0.553 ± 0.066.

For CSFCVLGPGLHL, which protein stability index is on record?
The protein stability index was 0.672 ± 0.047.

Which protein stability index does the source give for CSLRSSGLGFKQ here?
The protein stability index was 0.62 ± 0.072.

For CSPSYTCRIISF, which protein stability index is on record?
Its protein stability index is 0.7076 ± 0.006.

With CSRFGRLCYNGE as the sequence, how does the protein stability index read?
The protein stability index was 0.618 ± 0.023.

CSRPSLPIYYCS was tested. Which protein stability index did it give?
Its protein stability index is 0.581 ± 0.028.

For CSSACPPPPPAT, which protein stability index is on record?
Its protein stability index is 0.733 ± 0.014.

CSVCPGYLFGCA was tested. Which protein stability index did it give?
The protein stability index was 0.601 ± 0.025.

With CSVPPPLPPTTF as the sequence, how does the protein stability index read?
Its protein stability index is 0.683 ± 0.073.

CTFCLGSATVRT was tested. Which protein stability index did it give?
The protein stability index was 0.702 ± 0.04.

Which protein stability index does the source give for CTGLEGGGLPFR here?
The protein stability index was 0.636 ± 0.12.

Reference: the supplement of paper PMC10724198
